From article PMC8556260 come the findings set out here.

In experiment [1] the target is PIR91 ribosome-bound nascent chain (full-length PIR RNC, wild type) (UniProt O88900). The experiment in a line: cross-linking; titration of resuspended PIR91 RNCs with DnaK/DnaJ/GrpE (5:1:2, up to 50/10/25 µM), ADP, 50 mM KCl, 5 mM Mg2+, then EDC 80 mM, 30 min, 30 °C; fraction cross-linked to DnaK fitted to a two-state model; apparent.
Experiment [2] has the same target. The experiment in a line: cross-linking; titration of resuspended PIR91 RNCs with TF (up to 40 µM), 10 min on ice, then EDC 80 mM, 30 min, 30 °C; standard resuspension buffer, 10 mM Mg(OAc)2, pH 7.0; fraction cross-linked fitted to a two-state model; apparent.

As for “E. coli Hsp70 (DnaK), purified, ADP-bound, added as K/J/E mixture (from UniProt P0A6Y8 1-638) (natural protein)”, the Kd in experiment [1] is 109 µM.
For “Trigger factor (TF), purified wild type (from UniProt P0A850 1-432) (natural protein)”, the Kd in experiment [2] is 3.8 µM.
